Reference: PMC7935748 (Molecular cell, 2021)

Legend:
[1] = molecular target: FLAG-GFP-RADX alanine mutant of residues 365-368 (human, UniProt Q6NSI4 1-855, 4-residue alanine mutation of residues 365-368); test: pull-down
FLAG-GFP-RADX R389E = FLAG-GFP-RADX R389E (human, UniProt Q6NSI4 1-855, R389E); test: pull-down
FLAG-GFP-RADX = FLAG-GFP-RADX (human, UniProt Q6NSI4 1-855); test: pull-down
MBP-RADX = MBP-RADX (Homo sapiens, UniProt Q6NSI4 1-855); test: EMSA
MBP-RADX QVPK = MBP-RADX QVPK (Homo sapiens, UniProt Q6NSI4 1-855, Q451A;V452A;P453A;K454A); test: EMSA

binding result [1] | binding result (FLAG-GFP-RADX R389E) | binding result (FLAG-GFP-RADX) | Binder | binding result (MBP-RADX) | binding result (MBP-RADX QVPK)
binds | binds | binds | Human RAD51 (natural protein, UniProt Q06609 1-339, looked up) MAMQMQLEANADTSVEEESFGPQPISRLEQCGINANDVKKLEEAGFHTVEAVAYAPKKELINIKGISEAKADKILAEAAKLVPMGFTTATEFHQRRSEIIQITTGSKELDKLLQGGIETGSITEMFGEFRTGKTQICHTLAVTCQLPIDRGGGEGKAMYIDTEGTFRPERLLAVAERYGLSGSDVLDNVAYARAFNTDHQTQLLYQASAMMVESRYALLIVDSATALYRTDYSGRGELSARQMHLARFLRMLLRLADEFGVAVVITNQVVAQVDGAAMFAADPKKPIGGNIIAHASTTRLYLRKGRGETRICKIYDSPCLPEAEAMFAINADGVGDAKD | – | –
– | – | binds | RAD51 K133R (natural protein, human, UniProt Q06609 1-339, looked up) MAMQMQLEANADTSVEEESFGPQPISRLEQCGINANDVKKLEEAGFHTVEAVAYAPKKELINIKGISEAKADKILAEAAKLVPMGFTTATEFHQRRSEIIQITTGSKELDKLLQGGIETGSITEMFGEFRTGRTQICHTLAVTCQLPIDRGGGEGKAMYIDTEGTFRPERLLAVAERYGLSGSDVLDNVAYARAFNTDHQTQLLYQASAMMVESRYALLIVDSATALYRTDYSGRGELSARQMHLARFLRMLLRLADEFGVAVVITNQVVAQVDGAAMFAADPKKPIGGNIIAHASTTRLYLRKGRGETRICKIYDSPCLPEAEAMFAINADGVGDAKD | – | –
– | – | – | dT60 (ssDNA) DNA: TTTTTTTTTTTTTTTTTTTTTTTTTTTTTTTTTTTTTTTTTTTTTTTTTTTTTTTTTTTT | binds | binds
